Data reported in patent US20100062980A1 (NATIONAL UNIVERSITY OF SINGAPORE, published 2010).

Tests used:
[1] = molecular target: T1, cloned human β-adrenergic receptor subtype 1 (human, UniProt P08588 1-477)
[2] = molecular target: T2, cloned human β-adrenergic receptor subtype 2 (human, UniProt P07550 1-413)
[3] = molecular target: T1, cloned human β-adrenergic receptor …; assay: radioligand displacement ((-)-[3H]CGP-12177), Ki from IC50 by Cheng-Prusoff
[4] = molecular target: T2, cloned human β-adrenergic receptor …; assay: as above

T1 sequence (P08588 whole entry): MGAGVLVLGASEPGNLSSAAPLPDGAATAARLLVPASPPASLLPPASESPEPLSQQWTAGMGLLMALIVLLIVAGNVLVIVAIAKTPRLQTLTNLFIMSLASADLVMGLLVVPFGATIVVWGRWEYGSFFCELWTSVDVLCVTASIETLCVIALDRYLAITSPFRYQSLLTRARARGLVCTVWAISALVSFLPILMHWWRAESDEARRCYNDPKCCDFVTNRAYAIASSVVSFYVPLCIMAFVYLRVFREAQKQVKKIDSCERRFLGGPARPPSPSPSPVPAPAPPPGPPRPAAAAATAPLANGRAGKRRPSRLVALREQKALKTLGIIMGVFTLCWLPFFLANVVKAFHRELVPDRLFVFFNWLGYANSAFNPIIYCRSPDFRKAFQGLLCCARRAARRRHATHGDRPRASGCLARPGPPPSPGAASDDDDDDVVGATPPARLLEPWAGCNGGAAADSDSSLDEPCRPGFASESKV

B1: β-cardiotoxin (ligand)
chain: RKCLNTPLPLIYTTCPIGQDKCVKMTIKKLPSKYDVIRGCIDICPKSSADVEVLCCDTNKCNK
notes: also called beta-cardiotoxin; AY354198 protein
**Q.** For B1, which IC50 [1] is on record?
**A.** Its IC50 is 10 µM.

**Q.** What about the IC50 [2] of the same binder?
**A.** Its IC50 is 5 µM.

**Q.** And the Ki [3]?
**A.** Its Ki is 5.3 µM.

**Q.** And the Ki [4]?
**A.** Its Ki is 2.3 µM.
